Source: patent US7696175

Columns and labels:
[1] = biological target: intracellular antigens (TNT) in paraformaldehyde fixed Raji lymphoma cells; assay: fixed-cell radioimmunoassay on Raji cells, compared with the literature value for NHS76
[2] = biological target: intracellular antigens (TNT) in paraformaldehyde fixed Raji lymphoma cells; assay: fixed-cell radioimmunoassay: 125I-labeled fusion protein on paraformaldehyde-fixed Raji lymphoma cells, Scatchard analysis, Ka = -(slope/n) with n = 2

Work on “B7.1/NHS76 fusion protein (from UniProt P33681 35-242)” yielded an affinity relative to parental NHS76 (fold of parental NHS76) [1] of 0.14 and a Ka [2] of 2.15e+08 M⁻¹.
